Measurements as given in the DeepSol protein solubility set.

Assay: soluble on expression in E. coli; label from the status in PepcDB or PDB records

Row | Sequence | soluble on expression in E. coli
1 | MSSRKRGITPSRDQVRRKKLSIEETDSIEVVCRLCPYTGSTPSLIAIDEGSIQTVLPPAQFRRENAPQVEKVFRFGRVFSENDGQATVFERTSVDLILNLLKGQNSLLFTYGVTGSGKTYTMTGKPTETGTGLLPRTLDVIFNSINNRVEKCIFYPSALNTFEIRATLDAHLKRHQMAADRLSTSREITDRYCEAIKLSGYNDDMVCSVFVTYVEIYNNYCYDLLEDARNGVLTKREIRHDRQQQMYVDGAKDVEVSSSEEALEVFCLGEERRRVSSTLLNKDSSRSHSVFTIKLVMAPRAYETKSVYPTMDSSQIIVSQLCLVDLAGSERAKRTQNVGERLAEANSINQSLMTLRQCIEVLRRNQKSSSQNLEQVPYRQSKLTHLFKNYLEGNGKIRMVICVNPKPDDYDENMSALAFAEESQTIEVKKQVERMPSERIPHSFFTQWNSELDGSVRMEDDGSREIPCPPTFCLTDCNDKDTVDSMYKYARKLSSLQNSSEEGPSSTLLTMIRQYMMEADYQRVEIARLKDSLNDKDEEIKKLRGFCSRYKRENASMKERIASCEQGEQENALVMEKLMEQKMEDRKIIQSQKKAMRNVRGIIDNPSPSVASLRSRFDQENVAHPTAPIQTPPPPYQTPGRAPVFKKRLEATTSTTVMSGSSSGGSGQQGYVNPKYQRRSKSASRLLDHQPLHRVPTGTVLQSRTPANAIRTTKPEMHQLNKSGEYRLTHQEVDDEGNISTNIVKGNVIPTVSGGTAVFFNDIERLTHESPSTRK | not soluble
2 | GEFLISILEAIEPEVVYAGYDNSQPDTTNYLLSSLNRLAGKQMVSVVKWAKALPGFRNLHLDDQMTLIQYSWMSLMAFSLGWRSYKHTNGQMLYFAPDLIFNEERMQQSAMYDLCQGMRQISQEFVRLQVTYEEFLCMKVLLLLSTVPKDGLKSQASFDEMRMNYIKELRRAIAKKENNSSQNWQRFYQLTKLLDSMHDLVGGLLQFCFYTFVQSQALSVEFPEMLVEIISDQLPKVMAGMAKPLLFHKK | soluble
3 | MYDTPIFRSEFKVISHELIHALPKVILGESGDAAYMQSRVQQLADDHVAYFECTVPHEDIERAISVAEQAPFTVGILERIDDSSHYTDRSRTPVVVGFSTQSADVAAILRENYVPFEFDGSVADQVRVGASRIIHGIGLFEDFRFEDDDIVPGRLSAWVRDRDYPVLVEPFADLENGEVAELADHPLPLMSKLGYRTASSILSTDRLLELTEYLELQIEDLFELTRDAVAVSLLPQPLRVQLWEELVFPFFEQLGEDFADHSTTDDAESTTELRSEREHAGHAHTDHHGGAAGLEGVDPQFLDEMGIEFDDLDL | not soluble
4 | MSLTIRDIAAKAGVSVSTASRALNNNPRISQATRERIQALAEAEGYLPNYNAKNLTAGESNAVGVVFATADRSQPENPFFIDILRGINAQLVQRDYVLSVAISKTADELLKNVKAMVAQGKIKRFVLLYAHQDDPIAAFLRQHHLRFVTIGQPDDNANDYFVDNDNLEAGIGGATFLLNQLQVKHPVFVESTHDWAYEQQRRQGYERVAATFNVEPLTCRLGELNRVRAFIKRHPEIDGIMATDDFNGIEFYRLMREQYGINHFPMVSFNQSLPNGLTDADLHSVNLFPEKMGSATVALLFSDKEPLETPTPGQIKIPFEIKEGHHHHHH | soluble
5 | MAISKRHIGPYIIRETLGEGSFGKVKLATHYKTQQKVALKFISRQLLKKSDMHMRVEREISYLKLLRHPHIIKLYDVITTPTDIVMVIEYAGGELFDYIVEKKRMTEDEGRRFFQQIICAIEYCHRHKIVHRDLKPENLLLDDNLNVKIADFGLSNIMTDGNFLKTSCGSPNYAAPEVINGKLYAGPEVDVWSCGIVLYVMLVGRLPFDDEFIPNLFKKVNSCVYVMPDFLSPGAQSLIRRMIVADPMQRITIQEIRRDPWFNVNLPDYLRPMEEVQGSYADSRIVSKLGEAMGFSEDYIVEALRSDENNEVKEAYNLLHENQVIQEKLEHHHHHH | soluble
6 | MKISRETLHQLIENKLCQAGLKREHAATVAEVLVYADARGIHSHGAVRVEYYAERISKGGTNREPEFRLEETGPCSAILHADNAAGQVAAKMGMEHAIKTAQQNGVAVVGISRMGHSGAISYFVQQAARAGFIGISMCQSDPMVVPFGGAEIYYGTNPLAFAAPGEGDEILTFDMATTVQAWGKVLDARSRNMSIPDTWAVDKNGVPTTDPFAVHALLPAAGPKGYGLMMMIDVLSGVLLGLPFGRQVSSMYDDLHAGRNLGQLHIVINPNFFSSSELFRQHLSQTMRELNAITPAPGFNQVYYPGQDQDIKQRKAAVEGIEIVDDIYQYLISDALYNTSYETKNPFAQLEHHHHHH | soluble
7 | MVIATDDLETTCPNCNGSGREEPEPCPKCLGKGVILTAQGSTLLHFIKKHIHE | soluble
8 | MAMTKNTRFSPEVRQRAVRMVLESQGEYDSQWATICSIAPKIGCTPETLRVWGLRQHERDTGGGDGGLTTAERQRLKEPERENRELRRSNDILRQASAYFAKAEFDRLWKKLEHHHHHH | soluble
